The record followed here is patent US20250326862A1, “Antibody or Fragment Thereof Binding Specifically to Mertk, and Anti-Tumor Agent” (Chiome Bioscience Inc., priority 2021, published 2025).

Where a chain is given by its changes, count along the chain named. “Also recorded” adds a separate entry of the source.

The target of assay [1] is T1, binding of MerTK with Gas6 (Homo sapiens, UniProt Q12866).
T1 construct: purchased R&D Systems
T1 sequence (Q12866 26-499 limits assumed): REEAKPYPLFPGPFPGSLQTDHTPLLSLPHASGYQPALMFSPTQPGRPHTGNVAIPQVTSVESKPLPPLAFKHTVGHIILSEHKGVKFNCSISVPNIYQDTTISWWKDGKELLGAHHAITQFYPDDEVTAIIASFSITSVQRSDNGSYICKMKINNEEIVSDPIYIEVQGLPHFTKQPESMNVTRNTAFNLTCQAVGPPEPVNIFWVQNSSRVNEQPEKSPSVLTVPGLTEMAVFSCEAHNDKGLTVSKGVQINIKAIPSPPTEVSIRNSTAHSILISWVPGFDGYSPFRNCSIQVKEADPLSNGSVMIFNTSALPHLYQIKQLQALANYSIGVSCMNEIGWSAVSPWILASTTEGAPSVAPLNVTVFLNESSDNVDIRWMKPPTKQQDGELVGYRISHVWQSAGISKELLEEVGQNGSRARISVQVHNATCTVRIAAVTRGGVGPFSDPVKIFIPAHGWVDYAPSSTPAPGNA
Nature of the assay: Test 6: ligand binding inhibition ELISA, MerTK with Gas6. Conditions: human MerTK 5 μg/ml immobilized; biotinylated Gas6 10 nM; FIGS. 13 and 15. As for the experimental part:
(§1) “20A77” and “24A1” were evaluated for the ability to inhibit binding of MerTK with various ligands. The MerTK ligands used were human Gas6 (R&D Systems) and human TULP1 (abcam plc.) which were respectively biotinylated using “Biotin Labeling Kit-NH” (Dojindo Laboratories Co., Ltd.). […] TULP1 is a ligand correlated with ocular toxicity, and an antibody having an activity to inhibit binding of MerTK with TULP1 may have ocular toxicity. Thus, an antibody having high inhibitory activity of binding to Gas6 and low inhibitory activity of binding to TULP1 may be an efficacious anti-tumor agent having low ocular toxicity.
(§2) The ligand binding inhibition test was carried out as indicated below. First, human MerTK (R&D Systems) was added to an ELISA plate (Nunc) at a concentration of 5 μg/ml and immobilized overnight at room temperature. After removing the immobilization solution, 1% BSA/PBS was added for blocking reaction and left to stand at room temperature for 1 hour. After the blocking, the plate was washed with 0.05% Tween 20/PBS and an antibody solution was added for primary reaction at room temperature for 1 hour. […] After washing, a chromogenic substrate solution of TMB (Dako) was added for chromogenic reaction for 20 minutes, 1 N sulfuric acid was added to terminate the reaction and the absorbance was measured at 450 nm.

Assay [2] has as its target T2, binding of MerTK with TULP1 (Homo sapiens, UniProt Q12866).
T2 construct: purchased R&D Systems
T2 sequence (Q12866 26-499 limits assumed): T1 sequence (Q12866 26-499 limits assumed)
Briefly: Test 6: ligand binding inhibition ELISA, MerTK with TULP1. Conditions: human MerTK 5 μg/ml immobilized; biotinylated TULP1 40 nM; FIGS. 14 and 16. On the procedure: as §1, §2

For assay [3], the target named is T3, human MerTK on cells (EL4 cells stably expressing human MerTK); human melanoma cell line G361 intrinsically … (human, UniProt Q12866 21-999).
T3 construct: whole, on cells; also called hMerTK-EL4
T3 sequence (looked up): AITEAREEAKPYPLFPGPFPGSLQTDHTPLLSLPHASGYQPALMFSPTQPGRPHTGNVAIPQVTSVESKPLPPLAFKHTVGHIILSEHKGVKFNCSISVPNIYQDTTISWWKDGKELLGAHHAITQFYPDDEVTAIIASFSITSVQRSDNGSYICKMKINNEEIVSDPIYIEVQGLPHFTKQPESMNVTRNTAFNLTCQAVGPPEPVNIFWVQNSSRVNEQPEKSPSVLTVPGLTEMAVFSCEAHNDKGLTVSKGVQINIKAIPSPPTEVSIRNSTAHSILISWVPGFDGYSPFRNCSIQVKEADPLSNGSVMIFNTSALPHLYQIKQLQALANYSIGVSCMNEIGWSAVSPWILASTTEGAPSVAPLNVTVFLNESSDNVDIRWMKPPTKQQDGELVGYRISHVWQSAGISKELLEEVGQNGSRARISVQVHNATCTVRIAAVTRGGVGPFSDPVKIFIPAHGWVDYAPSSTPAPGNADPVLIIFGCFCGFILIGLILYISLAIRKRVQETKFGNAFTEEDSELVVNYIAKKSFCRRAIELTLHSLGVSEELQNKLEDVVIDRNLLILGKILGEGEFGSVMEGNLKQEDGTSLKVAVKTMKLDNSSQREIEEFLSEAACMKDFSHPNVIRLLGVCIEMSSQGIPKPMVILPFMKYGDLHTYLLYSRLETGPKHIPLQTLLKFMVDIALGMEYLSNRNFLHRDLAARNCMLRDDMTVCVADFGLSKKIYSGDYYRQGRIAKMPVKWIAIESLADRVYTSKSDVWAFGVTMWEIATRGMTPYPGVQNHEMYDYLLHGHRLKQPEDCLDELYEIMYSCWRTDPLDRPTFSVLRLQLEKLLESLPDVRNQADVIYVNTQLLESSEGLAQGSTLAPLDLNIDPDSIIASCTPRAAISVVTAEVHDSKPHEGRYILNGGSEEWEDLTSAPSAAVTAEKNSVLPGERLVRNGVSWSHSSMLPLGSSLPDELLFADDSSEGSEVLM
Nature of the assay: inferred from inhibition of Gas6-induced MerTK phosphorylation on hMerTK-EL4 cells. On the procedure:
The cells (hMerTK-EL4) stably expressing human MerTK were cultured in a “DMEM high glucose medium” (Thermo Fisher Scientific Inc.) containing 10% FBS. After the cultivation, the cells were washed in PBS, suspended in a serum-free medium, plated in a 96-well plate at 1×10⁶ cells/well and incubated at 37° C. for 3 hours. After the incubation, the respective clones were added, the hMerTK-EL4 was allowed to react for 1 hour, stimulated with 200 nM human Gas6 (R&D Systems) for 10 minutes and centrifuged and collected. The collected hMerTK-EL4 was lysed in a cell lysis solution, and the level of the phosphorylated MerTK protein in the lysate was determined using “Human Phospho-Mer DuoSet IC ELISA” (R&D Systems). The cell lysis solution used contained 1% “IGEPAL CA-630” (SIGMA) and 1×concentration of “Halt Protease and Phosphatase Inhibitor Single-Use Inhibitor Cocktail” (Thermo Fisher Scientific Inc.) added to MilliQ water.
Among these 14 clones, “20A77” and “24A1” were selected as clones showing particularly high inhibitory activity and subjected to the following tests.

A further assay concerns the target T4, human MerTK (Homo sapiens, UniProt Q12866).
T4 sequence (Q12866 21-999): T3 sequence (looked up)
Briefly: MerTK phosphorylation inhibition test in hMerTK-EL4 cells stimulated with human Gas6. In kind it is cell-based. Further details: expressed in transfected cells; host or cells: mouse lymphoma cell line EL4 (hMerTK-EL4). The note with it: hMerTK-EL4, antibody 1 hour, then 200 nM human Gas6 for 10 minutes; phospho-Mer ELISA; FIG. 1. As for the experimental part:
On the basis of the procedures indicated below, the clones were evaluated for MerTK phosphorylation inhibitory activity. Higher activity means higher binding ability to MerTK.
The cells (hMerTK-EL4) stably expressing human MerTK were cultured in a “DMEM high glucose medium” (Thermo Fisher Scientific Inc.) containing 10% FBS. After the cultivation, the cells were washed in PBS, suspended in a serum-free medium, plated in a 96-well plate at 1×10^6 cells/well and incubated at 37° C. for 3 hours. After the incubation, the respective clones were added, the hMerTK-EL4 was allowed to react for 1 hour, stimulated with 200 nM human Gas6 (R&D Systems) for 10 minutes and centrifuged and collected. The collected hMerTK-EL4 was lysed in a cell lysis solution, and the level of the phosphorylated MerTK protein in the lysate was determined using “Human Phospho-Mer DuoSet IC ELISA” (R&D Systems). The cell lysis solution used contained 1% “IGEPAL CA-630” (SIGMA) and 1×concentration of “Halt Protease and Phosphatase Inhibitor Single-Use Inhibitor Cocktail” (Thermo Fisher Scientific Inc.) added to MilliQ water.
(An ELISA detects its analyte on a solid surface through an enzyme-linked reagent.)

In assay [4] the target is T5, Recombinant Human Mer Fc Chimera Protein (R&D systems) (human, UniProt Q12866 26-499, limits assumed).
T5 construct: Bought reagent; also called human MerTK antigen; human Fc fusion protein of human MerTK; not shown: human Fc
T5 sequence (looked up): T1 sequence (Q12866 26-499 limits assumed)
Nature of the assay: ELISA, antigen immobilised at 5 ug/ml, HRP-labelled secondary antibody. On the procedure: (§3) The ELISA was performed according to the procedures indicated below. First, the respective antigens were added to an ELISA plate (Nunc) at a concentration of 5 μg/ml and immobilized overnight at room temperature. After removing the immobilization solution, 1% BSA/PBS was added for blocking reaction and left to stand at room temperature for 1 hour. After the blocking, the plate was washed with 0.05% Tween 20/PBS and an antibody solution was added for primary reaction at room temperature for 1 hour. After washing, an HRP-labelled antibody (GE Healthcare) was added for secondary reaction for 1 hour. After washing, a chromogenic substrate solution of TMB (Dako) was added for chromogenic reaction for 10 minutes, 1 N sulfuric acid was added to terminate the reaction and the absorbance was measured at 450 nm.

For assay [5], the target named is T6, Recombinant Mouse Mer Fc Chimera Protein (R&D systems) (mouse, UniProt Q60805 23-496, limits assumed).
T6 construct: Bought reagent; also called mouse MerTK antigen; human Fc fusion protein of mouse MerTK; not shown: human Fc
T6 sequence (looked up): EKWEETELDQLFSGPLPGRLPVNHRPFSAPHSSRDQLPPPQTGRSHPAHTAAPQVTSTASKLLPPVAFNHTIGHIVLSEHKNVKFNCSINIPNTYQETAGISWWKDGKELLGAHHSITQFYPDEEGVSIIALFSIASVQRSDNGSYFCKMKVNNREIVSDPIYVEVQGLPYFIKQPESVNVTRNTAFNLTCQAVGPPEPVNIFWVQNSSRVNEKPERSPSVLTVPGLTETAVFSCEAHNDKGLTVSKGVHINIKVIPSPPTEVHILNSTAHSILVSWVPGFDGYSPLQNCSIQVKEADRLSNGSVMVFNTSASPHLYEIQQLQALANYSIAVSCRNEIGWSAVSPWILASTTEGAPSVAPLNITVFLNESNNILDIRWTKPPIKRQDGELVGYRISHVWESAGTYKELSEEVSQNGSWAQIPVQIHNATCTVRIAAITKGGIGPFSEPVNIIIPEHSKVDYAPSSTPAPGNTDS
The assay is described as above. On the procedure: as §3

The target in a further assay is T7, rat MerTKECD-hFc (rat, UniProt P57097 19-497).
T7 construct: extracellular domain; Prepared in the same manner as hMerTKECD-mFc and mMerTKECD-mFc; not shown: human Fc
T7 sequence (looked up): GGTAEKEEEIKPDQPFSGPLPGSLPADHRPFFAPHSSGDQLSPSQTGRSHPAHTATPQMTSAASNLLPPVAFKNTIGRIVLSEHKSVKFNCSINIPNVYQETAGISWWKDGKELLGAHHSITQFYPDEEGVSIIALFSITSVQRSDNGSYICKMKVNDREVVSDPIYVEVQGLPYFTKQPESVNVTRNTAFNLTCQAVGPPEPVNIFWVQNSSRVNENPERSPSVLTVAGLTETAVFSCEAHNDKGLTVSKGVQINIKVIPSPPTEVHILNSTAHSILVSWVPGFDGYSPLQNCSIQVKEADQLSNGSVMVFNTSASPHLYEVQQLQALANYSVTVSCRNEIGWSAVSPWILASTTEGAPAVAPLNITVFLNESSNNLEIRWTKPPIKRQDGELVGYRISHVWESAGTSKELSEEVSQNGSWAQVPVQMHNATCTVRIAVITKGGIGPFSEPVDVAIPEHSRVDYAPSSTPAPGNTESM
The assay is described as above. As for the experimental part: as §3

B1: 20A77 (antibody, V domains shown)
VH: QVQLQQPGTELVKPGASVKLSCRASGNTFTSYWMHWVKQRPGQGLEWIGNINPSNGGTNYNEKFKSKATLTVDKSSSTAYMQLSSLTSEDSAVYYCARLNYYGFDGFAFWGQGTLVTVSA
VL: DIKMTQSPSSMYASLGERVTITCKASQDINSYLSWFQQKPGKSPKTLIYRANRLVDGVPSRFSGSGSGQDYSLTISSLEYEDMGIYYCLQYDEFPFTFGSGTKLEIK
notes: Mouse monoclonal antibody from a hybridoma clone (MerTK knockout mice); In Test 2 (1) the hybridoma clone was added
Turning to B1, in assay [1], the “inhibition of binding of Gas6 with MerTK” value is given as “inhibited binding of Gas6 with MerTK; also recorded: strongly inhibited binding of Gas6 with MerTK”. Further, the “inhibition of binding of TULP1 with MerTK” value in assay [2] is “did not inhibit binding of TULP1 with MerTK”. Further, the binding result in assay [3] is “binds”. Moreover, in the assay with human MerTK, the “MerTK phosphorylation inhibitory activity” value is “inhibited binding of Gas6 with MerTK and MerTK phosphorylation in a concentration dependent manner”.

B2: m20A77_mIgG1 (antibody, V domains shown)
VH: B1 VH with N55S
VL: B1 VL with D56S
notes: CDR-modified variant of 20A77, made recombinantly with mouse IgG1 heavy chain and kappa light chain constant regions
In the case of B2, the binding result (in assay [4]; in assay [5]; with rat MerTKECD-hFc) was “binds” throughout.
